# B1: 抗前列腺特异性膜抗原单域重链抗体噬菌体阳性克隆 (VHH)
# VHH: QVQLVESGGGLVQAGGSLRLSCAASGRFSRYAMGWFRQAPGKEREFIASISRSGGTTYYGDSVKGRFTISRDNAKNTVYLQMNTLKAEDTAVYYCAARTKGFGLRGQYHYWGQGTQVTVSS
# notes: also called 针对前列腺特异性膜抗原的单域重链抗体阳性克隆; 展示本发明所述纳米抗体的噬菌体克隆
# Assays:
# 重组表达的PSMA胞外区蛋白 = biological target: T1, 重组表达的PSMA胞外区蛋白 (UniProt Q04609 44-750, limits assumed); assay: indirect phage ELISA, PSMA extracellular region coated at 5 μg/mL, HRP-anti-M13 detection
# T1 construct: extracellular domain; Expressed from vector pRAG2a in HEK-293 cells, purified with HisTrap FF Crude and detected with an anti-His antibody; also called 前列腺特异性膜抗原膜外区; PSMA蛋白
# T1 sequence (Q04609 44-750 limits assumed): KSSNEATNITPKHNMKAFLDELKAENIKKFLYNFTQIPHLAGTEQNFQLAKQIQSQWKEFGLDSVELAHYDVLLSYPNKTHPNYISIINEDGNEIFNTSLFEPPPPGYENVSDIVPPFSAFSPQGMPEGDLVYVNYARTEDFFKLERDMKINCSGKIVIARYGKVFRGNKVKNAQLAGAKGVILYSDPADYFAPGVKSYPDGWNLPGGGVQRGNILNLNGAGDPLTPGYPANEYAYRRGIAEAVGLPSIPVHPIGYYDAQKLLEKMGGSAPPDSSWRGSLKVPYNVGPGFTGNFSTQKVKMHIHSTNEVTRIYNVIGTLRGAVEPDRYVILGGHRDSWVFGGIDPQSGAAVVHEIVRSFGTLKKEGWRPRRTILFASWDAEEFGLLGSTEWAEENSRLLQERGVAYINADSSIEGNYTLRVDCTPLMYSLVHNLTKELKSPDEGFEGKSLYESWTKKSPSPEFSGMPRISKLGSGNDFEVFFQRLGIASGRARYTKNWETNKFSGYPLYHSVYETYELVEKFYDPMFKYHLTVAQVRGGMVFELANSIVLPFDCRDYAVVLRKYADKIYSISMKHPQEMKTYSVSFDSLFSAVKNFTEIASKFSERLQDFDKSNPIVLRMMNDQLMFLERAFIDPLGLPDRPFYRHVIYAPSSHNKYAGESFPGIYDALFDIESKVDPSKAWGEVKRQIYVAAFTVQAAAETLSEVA
# [1] = biological target: T2, 前列腺特异性膜抗原 (PSMA) on LNCaP cells (UniProt Q04609 1-750, limits assumed); assay: cell ELISA and immunofluorescence on fixed LNCaP cells (PSMA-positive) against MKN45 cells (PSMA-negative), anti-M13 detection
# T2 construct: whole, on cells; Cells were fixed with 4% paraformaldehyde before the assay; also called prostate specific membrane antigen; LNCaP细胞(表达PSMA)
# T2 sequence (Q04609 whole entry): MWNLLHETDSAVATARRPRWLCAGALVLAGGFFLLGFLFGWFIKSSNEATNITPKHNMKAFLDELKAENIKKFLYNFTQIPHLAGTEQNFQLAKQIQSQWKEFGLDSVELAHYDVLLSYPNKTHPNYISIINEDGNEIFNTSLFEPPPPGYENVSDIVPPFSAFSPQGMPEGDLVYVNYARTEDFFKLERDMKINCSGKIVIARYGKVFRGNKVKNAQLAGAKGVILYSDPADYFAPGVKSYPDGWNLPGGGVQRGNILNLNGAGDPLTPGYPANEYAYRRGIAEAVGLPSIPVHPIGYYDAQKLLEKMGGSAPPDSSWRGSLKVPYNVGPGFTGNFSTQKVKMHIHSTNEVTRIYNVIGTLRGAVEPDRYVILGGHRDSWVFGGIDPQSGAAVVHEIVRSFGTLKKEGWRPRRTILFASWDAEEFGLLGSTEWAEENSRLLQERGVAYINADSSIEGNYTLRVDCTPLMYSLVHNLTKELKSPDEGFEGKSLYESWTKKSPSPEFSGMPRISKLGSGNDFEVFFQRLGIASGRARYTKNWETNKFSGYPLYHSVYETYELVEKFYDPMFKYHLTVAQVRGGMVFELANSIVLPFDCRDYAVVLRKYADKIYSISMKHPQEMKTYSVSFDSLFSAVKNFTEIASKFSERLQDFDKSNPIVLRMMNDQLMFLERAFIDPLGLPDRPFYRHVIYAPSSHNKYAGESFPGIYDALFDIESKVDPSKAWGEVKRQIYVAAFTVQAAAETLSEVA
binder,measurement,setting,value
B1,binding result,重组表达的PSMA胞外区蛋白,binds
same,binding result,[1],binds

# From patent publication CN105968201A (UNIV NANCHANG, dated 2016)
